Assay results: IntAct's records for PubMed 19037259

Key:
vac14_yeast VAC14 = vac14_yeast VAC14 (UniProt Q06708)
fig4_yeast FIG4 = fig4_yeast FIG4 (UniProt P42837)
Chain of UniProt P42837 (P42837 whole entry): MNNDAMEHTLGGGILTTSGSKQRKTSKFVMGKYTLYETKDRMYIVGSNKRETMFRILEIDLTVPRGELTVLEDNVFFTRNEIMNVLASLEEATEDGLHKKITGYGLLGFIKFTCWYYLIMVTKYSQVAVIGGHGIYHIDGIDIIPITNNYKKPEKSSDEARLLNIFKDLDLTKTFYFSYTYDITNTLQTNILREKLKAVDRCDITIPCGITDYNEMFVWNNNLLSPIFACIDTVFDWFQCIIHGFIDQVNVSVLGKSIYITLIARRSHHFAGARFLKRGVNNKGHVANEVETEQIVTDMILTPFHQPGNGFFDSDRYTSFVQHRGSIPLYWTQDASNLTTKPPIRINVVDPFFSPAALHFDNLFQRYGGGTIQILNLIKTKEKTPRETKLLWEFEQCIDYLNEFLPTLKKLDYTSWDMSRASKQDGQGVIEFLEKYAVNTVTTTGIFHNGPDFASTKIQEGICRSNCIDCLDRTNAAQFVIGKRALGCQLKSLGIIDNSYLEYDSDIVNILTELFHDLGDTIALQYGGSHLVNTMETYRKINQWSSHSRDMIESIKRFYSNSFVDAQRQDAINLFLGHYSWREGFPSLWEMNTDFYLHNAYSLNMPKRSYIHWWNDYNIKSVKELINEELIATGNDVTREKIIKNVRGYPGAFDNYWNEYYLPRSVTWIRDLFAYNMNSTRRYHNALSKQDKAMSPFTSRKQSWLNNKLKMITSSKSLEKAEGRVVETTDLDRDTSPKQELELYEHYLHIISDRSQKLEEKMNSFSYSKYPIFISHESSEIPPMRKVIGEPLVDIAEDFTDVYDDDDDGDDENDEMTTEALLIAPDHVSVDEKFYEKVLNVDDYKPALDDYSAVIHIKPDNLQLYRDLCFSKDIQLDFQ

Chain of UniProt Q06708 (Q06708 whole entry): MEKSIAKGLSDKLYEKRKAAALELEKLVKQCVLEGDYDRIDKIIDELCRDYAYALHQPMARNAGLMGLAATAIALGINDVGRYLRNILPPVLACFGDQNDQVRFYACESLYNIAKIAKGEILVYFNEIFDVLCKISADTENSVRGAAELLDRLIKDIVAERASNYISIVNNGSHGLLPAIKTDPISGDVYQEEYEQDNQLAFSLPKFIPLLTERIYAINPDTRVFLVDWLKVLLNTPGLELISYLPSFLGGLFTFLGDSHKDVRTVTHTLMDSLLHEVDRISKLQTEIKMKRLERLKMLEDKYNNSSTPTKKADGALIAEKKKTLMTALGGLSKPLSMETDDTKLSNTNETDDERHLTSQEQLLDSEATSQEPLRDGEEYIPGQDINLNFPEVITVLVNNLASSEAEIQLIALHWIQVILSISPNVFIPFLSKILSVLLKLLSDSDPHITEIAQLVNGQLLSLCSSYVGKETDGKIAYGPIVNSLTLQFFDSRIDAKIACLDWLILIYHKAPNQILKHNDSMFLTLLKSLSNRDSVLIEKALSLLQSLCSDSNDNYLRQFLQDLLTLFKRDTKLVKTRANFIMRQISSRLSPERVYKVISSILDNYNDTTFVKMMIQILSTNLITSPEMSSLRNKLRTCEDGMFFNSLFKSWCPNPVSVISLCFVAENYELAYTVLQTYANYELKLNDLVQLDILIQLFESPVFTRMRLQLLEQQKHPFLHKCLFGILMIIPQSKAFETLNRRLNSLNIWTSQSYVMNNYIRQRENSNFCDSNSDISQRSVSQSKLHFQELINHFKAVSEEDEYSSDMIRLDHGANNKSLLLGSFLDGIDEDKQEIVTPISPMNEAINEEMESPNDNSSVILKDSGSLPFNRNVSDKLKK

effect of a mutation on the interaction (vac14_yeast VAC14): disrupting interaction | effect of a mutation on the interaction (fig4_yeast FIG4): disrupting interaction
Substance: 1-phosphatidylinositol 3-phosphate 5-kinase FAB1 (Saccharomyces cerevisiae), P34756 G864E
